Read-outs that look alike come from different tables or passages of the source. Square brackets hold non-standard residues; d marks the D form.
Experiments:
[1] = target: T1, mouse melanocortin 5 receptor (mouse, UniProt P41149 1-325); assay: cell-based or functional assay
[2] = target: T2, mouse melanocortin 4 receptor (mouse, UniProt P56450 1-332); assay: cell-based or functional assay
[3] = target: T3, mouse melanocortin 3 receptor (mouse, UniProt P33033 1-323); assay: cell-based or functional assay
[4] = target: T4, mouse melanocortin 1 receptor (mouse, UniProt Q01727 1-315); assay: cell-based or functional assay
[5] = target: T5, human melanocortin 4 receptor (human, UniProt P32245 1-332); assay: 125I-NDP-MSH competition, HEK293 cells
T5 construct: whole, on cells; the assays used the receptor on HEK293 cells; also called hMC4R

[6] = target: T1, mouse melanocortin 5 receptor; assay: 125I-NDP-MSH competition, HEK293 cells
[7] = target: T2, mouse melanocortin 4 receptor; assay: 125I-NDP-MSH competition, HEK293 cells
[8] = target: T3, mouse melanocortin 3 receptor; assay: 125I-NDP-MSH competition, HEK293 cells
[9] = target: T4, mouse melanocortin 1 receptor; assay: 125I-NDP-MSH competition, HEK293 cells
[10] = target: T5, human melanocortin 4 receptor; assay: 125I-NDP-MSH competition; fold vs SEQ ID NO: 1 control
[11] = target: T5, human melanocortin 4 receptor; assay: cell-based or functional assay
[12] = target: T1, mouse melanocortin 5 receptor; assay: 125I-NDP-MSH competition; fold vs SEQ ID NO: 1 control
[13] = target: T2, mouse melanocortin 4 receptor; assay: as above
[14] = target: T3, mouse melanocortin 3 receptor; assay: as above
[15] = target: T4, mouse melanocortin 1 receptor; assay: as above
[16] = target: T1, mouse melanocortin 5 receptor; assay: cell-based or functional assay; remark: listed apart in the source
[17] = target: T2, mouse melanocortin 4 receptor; assay: cell-based or functional assay; remark: listed apart in the source
[18] = target: T3, mouse melanocortin 3 receptor; assay: cell-based or functional assay; remark: listed apart in the source

T2 sequence (P56450 whole entry): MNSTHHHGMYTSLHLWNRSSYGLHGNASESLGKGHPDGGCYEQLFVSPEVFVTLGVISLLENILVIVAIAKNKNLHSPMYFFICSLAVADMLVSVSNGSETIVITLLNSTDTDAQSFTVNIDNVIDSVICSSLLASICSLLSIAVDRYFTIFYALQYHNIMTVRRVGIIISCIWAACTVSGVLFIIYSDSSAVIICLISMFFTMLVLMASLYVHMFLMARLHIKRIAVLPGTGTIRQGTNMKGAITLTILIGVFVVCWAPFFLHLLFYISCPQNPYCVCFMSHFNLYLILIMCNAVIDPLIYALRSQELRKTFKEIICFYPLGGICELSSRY
T5 sequence (P32245 whole entry): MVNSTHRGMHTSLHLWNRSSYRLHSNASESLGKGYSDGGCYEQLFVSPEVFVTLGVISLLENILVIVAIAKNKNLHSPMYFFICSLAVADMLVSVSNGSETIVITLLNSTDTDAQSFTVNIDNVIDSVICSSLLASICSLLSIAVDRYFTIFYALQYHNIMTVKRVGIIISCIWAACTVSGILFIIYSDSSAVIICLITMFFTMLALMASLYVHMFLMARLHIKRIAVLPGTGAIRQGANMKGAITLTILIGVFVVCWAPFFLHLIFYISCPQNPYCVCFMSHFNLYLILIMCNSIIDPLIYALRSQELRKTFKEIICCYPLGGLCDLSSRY
T1 sequence (P41149 whole entry): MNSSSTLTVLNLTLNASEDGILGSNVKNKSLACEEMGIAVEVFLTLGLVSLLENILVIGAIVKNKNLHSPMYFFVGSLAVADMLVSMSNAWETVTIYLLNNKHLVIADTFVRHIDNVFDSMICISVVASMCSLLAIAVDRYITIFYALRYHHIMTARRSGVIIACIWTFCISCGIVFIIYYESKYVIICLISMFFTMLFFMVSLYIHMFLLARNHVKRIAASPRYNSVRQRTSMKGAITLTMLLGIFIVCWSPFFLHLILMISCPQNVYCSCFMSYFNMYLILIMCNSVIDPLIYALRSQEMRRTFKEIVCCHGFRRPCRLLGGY
T4 sequence (Q01727 whole entry): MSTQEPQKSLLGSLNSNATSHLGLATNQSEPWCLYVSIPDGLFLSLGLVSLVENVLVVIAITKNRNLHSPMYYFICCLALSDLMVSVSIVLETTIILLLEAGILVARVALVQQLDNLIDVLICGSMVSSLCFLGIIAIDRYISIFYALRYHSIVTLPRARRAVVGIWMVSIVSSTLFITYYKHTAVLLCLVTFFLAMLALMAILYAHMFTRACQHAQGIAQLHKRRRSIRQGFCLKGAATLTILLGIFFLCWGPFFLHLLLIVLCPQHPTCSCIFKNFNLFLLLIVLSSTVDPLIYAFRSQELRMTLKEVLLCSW
T3 sequence (P33033 whole entry): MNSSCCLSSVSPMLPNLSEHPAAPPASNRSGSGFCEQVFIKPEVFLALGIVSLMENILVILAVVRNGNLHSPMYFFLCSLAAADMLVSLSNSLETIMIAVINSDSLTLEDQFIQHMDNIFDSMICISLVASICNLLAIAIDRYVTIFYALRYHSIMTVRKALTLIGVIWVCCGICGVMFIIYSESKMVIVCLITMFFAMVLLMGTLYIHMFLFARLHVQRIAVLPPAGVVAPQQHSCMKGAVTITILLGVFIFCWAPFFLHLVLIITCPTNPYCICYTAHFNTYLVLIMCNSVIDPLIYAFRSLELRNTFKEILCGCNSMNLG

B1: ZMK 2-82 (peptide)
peptide: cyclo(PRFFNVF[dP])
notes: Ala115Val SNP in the Asn scaffold; also called c[Pro-Arg-Phe-Phe-Asn-Val-Phe-DPro]
With B1 the “EC50 (cAMP agonist)” value [1] was > 100 µM, the “pA2 (Schild analysis, agonist NDP-MSH, cAMP)” value (from here on “pA2”) [1] was 6.1 and the “pA2” value [2] was 7.2. The “percent maximal stimulatory response at 100 µM (cAMP)” value [2] was 16%, the “EC50 (cAMP agonist)” value [3] was > 100 µM and the “pA2” value [3] was 5.9. For the same binder, the “percent maximal stimulatory response at 100 µM (cAMP)” value [4] was 23%, the IC50 [5] was 0.25 µM and the IC50 [6] was 29 µM. It also gave an IC50 [7] of 0.038 µM, an IC50 [8] of 53 µM and an IC50 [9] of 15 µM. The “Fold Diff” value [10] was 3 fold, the “pA2” value [11] was 7.8 and the “Fold Diff” value [12] was 2 fold. The “Fold Diff” value [13] was 2 fold, the “Fold Diff” value [14] was 3 fold and the “Fold Diff” value [15] was 2 fold.

B2: ZMK 3-18 (peptide)
peptide: cyclo(PCFFNAF[dP])
notes: Arg111Cys SNP in the Asn scaffold; also called c[Pro-Cys-Phe-Phe-Asn-Ala-Phe-DPro]
B2 gave an IC50 [5] of 19.3 µM, an IC50 [7] of 1.9 µM and an IC50 [9] of 24.6 µM. For the same binder, the “Fold Diff” value [10] was 300 fold, the “pA2” value [11] was 5.8 and the “pA2” value [16] was < 5. For the same binder, the “pA2” value [17] was 5.9, the “pA2” value [18] was < 5 and the “Fold Diff” value [13] was 90 fold. For the same binder, the “Fold Diff” value [15] was 3 fold.
